From patent publication US20250073277A1, “METHODS FOR OBTAINING CARDIOMYOGENIC PRECURSOR CELLS” (University of Miami, published 2025) come the findings set out here.

For this experiment, the target named is T1, human growth hormone-releasing hormone receptor (GHRHR) (human).
T1 chain: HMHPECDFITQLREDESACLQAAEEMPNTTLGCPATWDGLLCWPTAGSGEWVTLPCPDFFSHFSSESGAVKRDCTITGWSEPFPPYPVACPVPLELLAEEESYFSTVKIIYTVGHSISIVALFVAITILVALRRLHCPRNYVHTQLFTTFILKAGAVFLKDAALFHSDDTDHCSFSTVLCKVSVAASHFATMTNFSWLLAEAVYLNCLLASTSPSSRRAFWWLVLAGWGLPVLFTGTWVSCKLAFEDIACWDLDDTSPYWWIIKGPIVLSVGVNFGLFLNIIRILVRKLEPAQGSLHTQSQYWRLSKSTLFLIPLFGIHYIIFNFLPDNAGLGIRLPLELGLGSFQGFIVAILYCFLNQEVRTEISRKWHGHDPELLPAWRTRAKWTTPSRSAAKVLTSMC
The experiment is described as follows: cell-based or functional assay.

B1: recombinant growth hormone-releasing hormone (GHRH) (ligand)
chain: YADAIFTNSYRKVLGQLSARKLLQDIMSRQQGESNQERGARARL
Regarding B1, the “NKX2.5 expression in differentiating hiPSCs” value is 2.5 fold.
